Data: US7790682B1, “Engineered human acidic fibroblast growth factors and associated methods” (The Florida State University Research Foundation, Inc., priority 2003, dated 2010)

What was measured:
[1] = Isothermal equilibrium denaturation in guanidine HCl monitored by CD; type: physicochemical; details: for Cm / m-value / ΔG0: GuHCl, 298K, CD signal at 227 nm; for ΔΔG: relative to WT*, negative value = more stable
Experimental: Protein samples were equilibrated overnight in 20 mM N-2-(acetamido)iminodiacetic acid (ADA), 100 mM NaCl pH 6.60 at 298K in 0.1M increments of guanidine HCl (GuHCl). All samples contained a final protein concentration of 25 μM. An Aviv model 202 circular dichroism spectrometer (Proterion Corp., Piscataway, N.J.) equipped with a Peltier controlled temperature unit maintaining a constant temperature of 298K was used for all spectroscopic measurements. For each sample, triplicate scans were collected and averaged. Buffer traces were collected, averaged and subtracted from the sample traces. Data smoothing was performed prior to buffer subtraction using a 5-point Fourier transform filter. The denaturation process was monitored by observing the change in CD signal at 227 nm with increasing GuHCl, according to published references. The general purpose non-linear least squares fitting program DataFit™ (Oakdale Engineering, Oakdale Pa.) was used to fit the change in molar ellipticity at 227 nm versus GuHCl concentration to a six parameter two state model: F=(F0N+SN[D]+F0D+SD[D])e^−((ΔG0+m[D]/RT)/1+e^−((ΔG0+m[D]/RT) (1) where [D] is the denaturant concentration, F0N and F0D are the 0M denaturant molar ellipticity intercepts for the native and denatured states, respectively, and SN and SD are the slopes of the native and denatured state baselines, respectively. ΔG0 and m describe the linear function of the unfolding free energy versus denaturant concentration at 298K. The effect of a given mutation upon the stability of the protein (ΔΔG) was calculated by taking the difference between the Cm values for WT* and mutant and multiplying by the average of the m values, as described by Pace and Scholtz (Measuring the conformational stability of a protein; in Protein Structure: A Practical Approach, Creighton, T. E., ed., pp. 299-321, Oxford University Press, Oxford; 1997): ΔΔG=(CmWT*−Cm mutant)(mWT*+mmutant)/2 (2) Folding Kinetics Measurements.
Previous studies by others of the stability and folding of FGF-1 have been performed by monitoring the fluorescence signal of the single buried Trp 107 in FGF-1. This Trp in the WT* structure is somewhat unusual in that it is more highly quenched in the native state than the denatured. […] We have previously compared the fluorescence and CD spectroscopic response of FGF-1 to denaturation by GuHCl and shown essentially indistinguishable results for both his-tagged and non-his-tagged forms. A tabulation of the mutant thermodynamic data from isothermal equilibrium denaturation, monitored by CD signal, is listed in Table II. The data in this table for the SYM6 mutant are from our previously published isothermal equilibrium denaturation study monitored by fluorescence.

[2] = Folding and unfolding kinetics (Chevron plot, stopped-flow CD, GuHCl); type: physicochemical; details: for kf: folding rate constant extrapolated to 0M GuHCl; for kf / ku: global Chevron fit; for ΔΔG‡-D / ΔΔG‡-N: in reference to WT*; for ΔΔG‡-D: positive value = decrease in folding activation barrier; for ΔΔG‡-N: positive value = decrease in unfolding activation barrier; for mf: slope of ln(kf) vs GuHCl; for mu: slope of ln(ku) vs GuHCl; for ku: unfolding rate constant extrapolated to 0M GuHCl
Experimental: Due to signal-to-noise considerations, relatively high protein concentrations (>100 μM) of FGF-1 were required for kinetic studies monitored by CD. At these concentrations protein precipitation occurred in ADA buffer. Therefore, a different buffering system was chosen for the kinetic studies to permit higher protein concentrations without precipitation. Protein samples were dialyzed against 50 mM sodium phosphate, 100 mM NaCl, 10 mM ammonium sulfate, 2 mM DTT, and typically 2.5, 3.0 or 3.8M GuHCl pH 7.5 overnight at 298K prior to data collection (higher concentrations of GuHCl were required to ensure complete denaturation for some stabilizing mutations).
Protein samples were degassed for 10 minutes prior to analysis. Refolding was initiated by a 1:10 dilution of protein solutions into 50 mM sodium phosphate, 100 mM NaCl, 10 mM ammonium sulfate, 2 mM DTT pH 7.5 containing either 0.1M or 0.05M increments of GuHCl up to the midpoint of denaturation. All data were collected using an Aviv model SF305 stopped flow system. Data collection times for each protein were designed to quantify the CD signal over 5 half-lives, or >96% of the total expected amplitude.
Protein samples (300 μM) were dialyzed against 50 mM sodium phosphate, 100 mM NaCl, 10 mM ammonium sulfate, 2 mM DTT pH 7.50 buffer overnight at 298K, and degassed for 10 min prior to data collection. Unfolding was initiated by 1:10 dilution of the native protein into 50 mM sodium phosphate, 100 mM NaCl, 10 mM ammonium sulfate, 2 mM DTT pH 7.5 buffer with final GuHCl concentration in the range of 1.5 to 5.5M in 0.5M increments. The unfolding process was quantified by following the change in CD signal at 227 nm, and data collection times for each protein were designed so as to monitor the CD signal over 3 to 4 half-lives, or >93% of the total expected amplitude.
Triplicate scans were collected for both folding and unfolding kinetic data at each GuHCl buffer condition. In all cases, data from at least three separate experiments were averaged. The kinetic rates and amplitudes versus denaturant concentration were calculated from the time dependent change in CD signal using a single exponential model: I(t)=Aexp(−kt)+C (3) where I(t) is the intensity of CD signal at time t, A is the corresponding amplitude, k is the observed rate constant for the reaction and C is a constant that is the asymptote of the CD signal. Folding and unfolding rate constant data were fit to a global function describing the contribution of both rate constants to the observed kinetics as a function of denaturant (“Chevron” plot): In(kobs)=In(kf0exp(mkfD)+ku0exp(mkuD)) (5) where kf0 and ku0 are the folding and unfolding rate constants, respectively, extrapolated to 0M denaturant, mkf and mku are the slopes of the linear functions relating In(kf) and In(ku), respectively, to D, the denaturant concentration. Changes in activation barriers upon mutation were calculated using a modified version of transition state theory: ΔΔG‡-D=RTIn(kf Mut/kfWT*) and ΔΔG‡-N=RTIn(ku Mut/kuWT*) (6) where kf Mut, ku Mut, kf WT* and ku WT* are the folding and unfolding rates for mutant and WT*, respectively, in water. ΔΔG‡-D, and ΔΔG‡-N are the changes in the activation barrier for folding and unfolding, respectively, between mutation and WT*. A positive value for ΔΔG‡-D or ‡‡G‡-N indicates a decrease in the associated activation barrier energy. Isothermal Titration Calorimetry.
Due to the relatively weak differential CD signal of native and denatured FGF-1, the folding kinetics study required relatively high protein concentrations (>5 mg/ml). […] Thus, the refolding rate constants were not obtainable below certain denaturant concentrations for these mutants. […] The SYM6Δ120-122 mutant is substantially destabilized relative to the WT* protein (see Table II) and presents a relatively short “folding arm” in the Chevron plot, for this reason there is greater uncertainty associated with the folding kinetics determined for this mutant. […]

B1: SYM5/ΔΔ: SYM5 FGF-1 mutant plus both Δ104-106 and Δ120-122 deletion mutations (protein, UniProt P05230 16-155, looked up, variant L44F L73V V109L L111I C117V A103G del104-106 R119G del120-122)
Fibroblast growth factor 1: FNLPPGNYKKPKLLYCSNGGHFLRILPDGTVDGTRDRSDQHIQFQLSAESVGEVYIKSTETGQYLAMDTDGLVYGSQTPNEECLFLERLEENHYNTYISKKHGWFLGIKKNGSVKGTHYGQKAILFLPLPVSSD
Cm [1]: 1.89 ± 0.01 M | m-value [1]: 18.1 ± 0.7 kJ/mol M | ΔG0 [1]: 34.2 ± 1.2 kJ/mol | ΔΔG [1]: -15.9 kJ/mol | stability of the actual combination mutant ([1]; relative to the SYM5 protein): -15.1 kJ/mol | folding behavior ([2]; all denaturant concentrations evaluated): single exponential folding behavior | kf [2]: 40.4 s⁻¹ | ΔΔG‡-D [2]: 6.20 kJ/mol | ΔΔG‡-N [2]: 0.61 kJ/mol | mf [2]: -4.57 M⁻¹ | mu [2]: 0.66 M⁻¹ | ku [2]: 0.88 1 × 10^−3 sec^−1

B2: SYM6/Δ120-122: SYM6 FGF-1 mutant plus Arg119→Gly/ΔGly120/ΔPro121/ΔArg122 (protein, UniProt P05230 16-155, looked up, variant L44F M67I L73V V109L L111I C117V R119G del120-122)
Fibroblast growth factor 1: FNLPPGNYKKPKLLYCSNGGHFLRILPDGTVDGTRDRSDQHIQFQLSAESVGEVYIKSTETGQYLAIDTDGLVYGSQTPNEECLFLERLEENHYNTYISKKHAEKNWFLGIKKNGSVKGTHYGQKAILFLPLPVSSD
Cm [1]: 0.79 ± 0.01 M | m-value [1]: 20.0 ± 0.2 kJ/mol M | ΔG0 [1]: 15.7 ± 0.2 kJ/mol | ΔΔG [1]: 5.4 kJ/mol | kf [2]: 17.3 s⁻¹ | ΔΔG‡-D [2]: 4.10 kJ/mol | ΔΔG‡-N [2]: 6.07 kJ/mol | mf [2]: -9.45 M⁻¹ | mu [2]: 0.86 M⁻¹ | ku [2]: 7.95 1 × 10^−3 sec^−1

B3: SYM6/Δ104-106: SYM6 FGF-1 mutant plus Ala103→Gly/ΔGlu104/ΔLys105/ΔAsn106 (protein, UniProt P05230 16-155, looked up, variant A103G E104* K105* N106*)
Fibroblast growth factor 1: FNLPPGNYKKPKLLYCSNGGHFLRILPDGTVDGTRDRSDQHIQLQLSAESVGEVYIKSTETGQYLAMDTDGLLYGSQTPNEECLFLERLEENHYNTYISKKHGWFVGLKKNGSCKRGPRTHYGQKAILFLPLPVSSD
modifications: SYM6 background mutations
notes: SYM6 FGF-1 mutant plus Ala103→Gly/ΔGlu104/ΔLys105/ΔAsn106
Cm [1]: 1.21 ± 0.01 M | m-value [1]: 16.9 ± 0.5 kJ/mol M | ΔG0 [1]: 20.5 ± 0.5 kJ/mol | ΔΔG [1]: -2.8 kJ/mol | kf [2]: 30.1 s⁻¹ | ΔΔG‡-D [2]: 5.47 kJ/mol | ΔΔG‡-N [2]: 3.91 kJ/mol | mf [2]: -5.41 M⁻¹ | mu [2]: 0.94 M⁻¹ | ku [2]: 3.33 1 × 10^−3 sec^−1
